These results are taken from the Immune Epitope Database (IEDB).

Holding throughout (assay): IEDB peptide-MHC binding, purified MHC/competitive/radioactivity; filed as Kd, often an IC50 or EC50 that approximates it; ≥ and ≤ were set here for values at or beyond the usual limits of such assays
Experiment [1] concerns the target HLA-A*33:01.
Experiment [2] deals with HLA-A*68:01.
For experiment [3], the target named is HLA-A*11:01.
Experiment [4] has as its target HLA-A*31:01.
The target of experiment [5] is HLA-A*03:01.
Setting [6] is: source organism: Vaccinia virus Copenhagen.
Setting [7] is: source organism: Lassa virus Josiah.
[8] abbreviates: source organism: SARS coronavirus Tor2.
[9] abbreviates: source organism: Dengue virus 4 Philippines/H241/1956.
[10] abbreviates: source organism: Vaccinia virus WR.
The mark [11] stands for this setting: source organism: Mammarenavirus brazilense.
Setting [12] is: source organism: Mammarenavirus machupoense.

What is called Kd is the constant that tells how readily two partners part at equilibrium. For the sequence ILNFLDWIK, the Kd amounted to 1.29 µM in experiment [1] (setting [6]); 0.158 µM in experiment [2] (setting [6]); 0.155 µM in experiment [3] (setting [6]); 0.427 µM in experiment [4] (setting [6]); 0.189 µM in experiment [5] (setting [6]).
In the case of SAVIDALPR, the Kd in experiment [1] (setting [7]) came to 15.3 µM; in experiment [2] (setting [7]), 0.0533 µM; in experiment [3] (setting [7]), 0.222 µM; in experiment [4] (setting [7]) it was 2.12 µM; in experiment [5] (setting [7]), 11 µM.
Take DQAMTQMYK: the Kd in experiment [1] (setting [8]) was 8.45 µM; in experiment [2] (setting [8]), 0.121 µM; in experiment [3] (setting [8]) it was 0.866 µM; in experiment [4] (setting [8]) it was 6.97 µM; in experiment [5] (setting [8]), 2.56 µM.
In the same order, the values of SLQVCVQTVR are 5.11 µM, 5.79 µM, 7.03 µM, 0.47 µM and 13.3 µM.
Turning to LVAPSYGMR, the Kd in experiment [2] (setting [9]) was determined as 0.00384 µM.
For FQGKFKKIVK, the Kd was ≥ 24.7 µM in experiment [1] (setting [8]); ≥ 24.2 µM in experiment [2] (setting [8]); 2.88 µM in experiment [3] (setting [8]); 13.4 µM in experiment [4] (setting [8]); 9.46 µM in experiment [5] (setting [8]).
For LLVKMINHLK, the Kd was ≥ 67.5 µM in experiment [1] (setting [10]); 0.776 µM in experiment [2] (setting [10]); 0.4 µM in experiment [3] (setting [10]); 5.42 µM in experiment [4] (setting [10]); 0.258 µM in experiment [5] (setting [10]).
For PVYLMTLMK, the results for the Kd in experiment [3] (setting [9]) and in experiment [5] (setting [9]) were 0.196 µM and 0.00391 µM, respectively.
As for ATTILTPMLR, the Kd is 0.284 µM in experiment [2] (setting [9]), 0.129 µM in experiment [3] (setting [9]) and 0.0773 µM in experiment [4] (setting [9]).
Consider RSTPFNMLKR, for which the Kd in experiment [4] (source organism: Dengue virus 2 Jamaica/1409/1983) is 1.39 µM.
Consider QAAVLMGLGK, for which the Kd in experiment [2] (setting [9]) worked out at 0.0607 µM.
With SLLTCAKFK, the Kd in experiment [5] (source organism: Dengue virus 1 Brazil/97-11/1997) was found to be 0.021 µM.
EIARIENEMK: the Kd is 7.05 µM in experiment [1] (setting [10]); 0.00711 µM in experiment [2] (setting [10]); 3.63 µM in experiment [3] (setting [10]); ≥ 70 µM in experiment [4] (setting [10]); 5.61 µM in experiment [5] (setting [10]).
For NIVTDLENR the same measures were 0.832 µM, 0.0219 µM, 8.74 µM, 1.74 µM and 9.09 µM.
Consider AMPNLYKMQR, for which the Kd in experiment [1] (setting [8]) was 11.7 µM; in experiment [2] (setting [8]), 1.97 µM; in experiment [3] (setting [8]), 1.01 µM; in experiment [4] (setting [8]) it was 0.24 µM; in experiment [5] (setting [8]), 1.04 µM.
As to CVDIFTEGK, the Kd was ≥ 77.7 µM in experiment [1] (setting [10]); 0.0186 µM in experiment [2] (setting [10]); 0.0783 µM in experiment [3] (setting [10]); 16.3 µM in experiment [4] (setting [10]); 3.75 µM in experiment [5] (setting [10]).
Regarding LNTPYCNYTK, the Kd in experiment [1] (setting [11]) was 0.032 µM; in experiment [2] (setting [11]) it was 0.695 µM; in experiment [3] (setting [11]), 10.8 µM; in experiment [4] (setting [11]), 6.41 µM; in experiment [5] (setting [11]) it was 15.3 µM.
In the case of HVCNATDFWR, the Kd in experiment [1] (setting [10]) was found to be 0.383 µM; in experiment [2] (setting [10]) it was 0.0379 µM; in experiment [3] (setting [10]), 0.45 µM; in experiment [4] (setting [10]), 0.00814 µM; in experiment [5] (setting [10]), 6.76 µM.
For RAVKFAEESY the same measures were ≥ 70 µM, 7.29 µM, 14.5 µM, ≥ 70 µM and 14.8 µM.
As for SSRVDRYSK, the Kd turned out to be 1.21 µM in experiment [1] (setting [10]); 0.611 µM in experiment [2] (setting [10]); 0.0169 µM in experiment [3] (setting [10]); 0.266 µM in experiment [4] (setting [10]); 0.0659 µM in experiment [5] (setting [10]).
In the case of DIFMRDWNSK, the Kd in experiment [1] (setting [10]) is 0.548 µM; in experiment [2] (setting [10]), 0.0742 µM; in experiment [3] (setting [10]), 4.23 µM; in experiment [4] (setting [10]) it was 12.4 µM; in experiment [5] (setting [10]), ≥ 70.1 µM.
For GSSKGNCAIK the same measures were ≥ 29.1 µM, 0.0231 µM, 0.0261 µM, 3.48 µM and 0.025 µM.
For DVSLSAYIIR the same measures were 1.12 µM, 0.24 µM, 0.609 µM, 0.387 µM and 2.41 µM.
For ILEYLYIMR, the Kd in experiment [1] (setting [10]) came to 0.426 µM; in experiment [2] (setting [10]), 0.303 µM; in experiment [3] (setting [10]) it was 1.09 µM; in experiment [4] (setting [10]) it was 0.0976 µM; in experiment [5] (setting [10]), 1.57 µM.
Consider ITSTKTIEY, for which the Kd in experiment [1] (setting [10]) is ≥ 20.9 µM; in experiment [2] (setting [10]), 1.73 µM; in experiment [3] (setting [10]), 0.434 µM; in experiment [4] (setting [10]), 15.1 µM; in experiment [5] (setting [10]), 0.122 µM.
As to SFFQEIPVFL, the Kd in experiment [1] (setting [12]) was 2.41 µM; in experiment [2] (setting [12]), ≥ 49.2 µM; in experiment [3] (setting [12]), ≥ 59.7 µM; in experiment [4] (setting [12]), 0.613 µM; in experiment [5] (setting [12]), ≥ 70 µM.
